Source: publication PMC10716038, “Talin and kindlin use integrin tail allostery and direct binding to activate integrins” (Nature Structural & Molecular Biology, 2023)
Several values for one entry are separate records, joined by “and”; a condition that tells them apart may be missing. Identical values can stand only once. No end group written: not given here.

How the values were obtained:
Details in all cases: both partners purified
[1] = molecular target: T1, THD1 K402E (UniProt P26039 1-405, K402E); experiment: MST; apparent; THD1 or THD1 mutants titrated to 488–β3-CT in the presence of 30-40 µM KIND2; MST buffer
T1 construct: talin-1 (TLN1) head domain, residues 1-405, K402E; source: E. coli (DE3) Rosetta 2, purified (IMAC, SEC); not shown: His10-SUMO, N-terminal, cleaved
T1 sequence (P26039 1-405 K402E): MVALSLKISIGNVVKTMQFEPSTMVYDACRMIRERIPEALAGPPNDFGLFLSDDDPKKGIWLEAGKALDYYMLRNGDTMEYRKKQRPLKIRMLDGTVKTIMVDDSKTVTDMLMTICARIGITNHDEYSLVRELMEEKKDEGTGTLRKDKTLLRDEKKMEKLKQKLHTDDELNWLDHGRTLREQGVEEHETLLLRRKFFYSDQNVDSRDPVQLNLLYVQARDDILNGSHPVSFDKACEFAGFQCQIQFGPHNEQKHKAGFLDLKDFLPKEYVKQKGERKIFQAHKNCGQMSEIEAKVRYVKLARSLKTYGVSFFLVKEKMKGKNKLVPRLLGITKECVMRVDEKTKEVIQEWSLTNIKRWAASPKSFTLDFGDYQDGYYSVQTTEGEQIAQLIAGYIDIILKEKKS

[2] = molecular target: T2, kindlin-2 (KIND2) (UniProt Q8CIB5 1-680); experiment: MST; apparent; KIND2 titrated to 488–β3-CT in the presence of 250–450 µM THD1; MST buffer
T2 construct: kindlin-2 (KIND2), recombinant; with the F1 loop and the PH domain (unlike ΔKIND2); source: E. coli Rosetta, purified (IMAC, SEC); not shown: His10-SUMO, N-terminal, cleaved
T2 sequence (looked up): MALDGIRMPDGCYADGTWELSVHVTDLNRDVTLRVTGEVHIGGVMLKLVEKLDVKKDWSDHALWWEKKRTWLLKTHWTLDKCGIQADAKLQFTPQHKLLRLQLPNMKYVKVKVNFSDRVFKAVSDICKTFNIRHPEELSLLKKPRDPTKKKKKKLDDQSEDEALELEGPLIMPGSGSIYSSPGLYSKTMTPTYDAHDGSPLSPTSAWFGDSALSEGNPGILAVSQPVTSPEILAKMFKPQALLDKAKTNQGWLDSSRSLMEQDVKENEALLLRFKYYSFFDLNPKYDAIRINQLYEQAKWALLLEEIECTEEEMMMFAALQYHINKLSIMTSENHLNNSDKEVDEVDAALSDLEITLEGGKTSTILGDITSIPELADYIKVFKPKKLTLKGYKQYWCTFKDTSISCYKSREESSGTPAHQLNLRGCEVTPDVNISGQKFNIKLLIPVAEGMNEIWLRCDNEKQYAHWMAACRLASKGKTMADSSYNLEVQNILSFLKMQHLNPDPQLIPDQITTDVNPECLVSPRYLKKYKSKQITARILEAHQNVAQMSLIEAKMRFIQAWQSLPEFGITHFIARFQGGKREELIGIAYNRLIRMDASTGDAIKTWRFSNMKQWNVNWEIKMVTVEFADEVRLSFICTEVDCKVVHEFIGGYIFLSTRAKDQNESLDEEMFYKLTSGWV

[3] = molecular target: T1, THD1 K402E; experiment: MST; unlabelled protein titrated to 50-200 nM ATTO 488-labelled β-CT peptide, no third protein; 20 mM Tris pH 7.5, 200 mM NaCl, 1 mM TCEP, 0.05% Tween-20; Kd of individual titrations (in S0002 mean and sd, n = 2)
[4] = molecular target: T2, kindlin-2 (KIND2); experiment: MST; apparent; KIND2 titrated to 488–β3-CT in the presence of 100–400 µM THD2; MST buffer
[5] = molecular target: T3, KIND2 Y13A (UniProt Q8CIB5 1-680, Y13A); experiment: MST; apparent; KIND2-Y13A titrated to 488–β3-CT or KIND2 to 488–β1-spacer-CT in the presence of 300-400 µM THD1; MST buffer
T3 construct: kindlin-2 (KIND2), recombinant, Y13A; source: E. coli Rosetta, purified (IMAC, SEC); not shown: His10-SUMO, N-terminal, cleaved
T3 sequence (looked up): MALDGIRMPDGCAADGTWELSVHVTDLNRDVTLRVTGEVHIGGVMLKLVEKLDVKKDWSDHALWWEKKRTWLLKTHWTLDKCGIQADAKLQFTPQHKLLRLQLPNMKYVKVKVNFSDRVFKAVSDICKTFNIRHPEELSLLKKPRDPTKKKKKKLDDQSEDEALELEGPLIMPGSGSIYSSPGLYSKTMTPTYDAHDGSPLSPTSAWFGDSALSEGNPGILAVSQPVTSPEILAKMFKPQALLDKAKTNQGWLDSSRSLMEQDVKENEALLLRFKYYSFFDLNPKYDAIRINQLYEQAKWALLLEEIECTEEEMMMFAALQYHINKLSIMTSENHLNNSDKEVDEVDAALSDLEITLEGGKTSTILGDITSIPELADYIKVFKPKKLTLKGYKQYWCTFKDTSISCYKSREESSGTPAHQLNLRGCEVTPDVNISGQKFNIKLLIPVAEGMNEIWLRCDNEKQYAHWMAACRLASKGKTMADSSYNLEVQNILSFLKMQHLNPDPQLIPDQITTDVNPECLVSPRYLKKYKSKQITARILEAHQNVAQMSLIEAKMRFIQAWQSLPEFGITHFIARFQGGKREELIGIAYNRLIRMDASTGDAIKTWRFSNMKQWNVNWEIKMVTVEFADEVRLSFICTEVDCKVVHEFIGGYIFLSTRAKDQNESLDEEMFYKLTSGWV

[6] = molecular target: T4, THD1 K403A (UniProt P26039 1-405, K403A); experiment: MST; unlabelled protein titrated to 50-200 nM ATTO 488-labelled β-CT peptide, no third protein; 20 mM Tris pH 7.5, 200 mM NaCl, 1 mM TCEP, 0.05% Tween-20; Kd of individual titrations (in S0002 mean and sd, n = 2)
T4 construct: talin-1 (TLN1) head domain, residues 1-405, K403A; source: E. coli (DE3) Rosetta 2, purified (IMAC, SEC); not shown: His10-SUMO, N-terminal, cleaved
T4 sequence (P26039 1-405 K403A): as the sequence (P26039 1-405 K402E) above, with E402K, K403A counted along it

[7] = molecular target: T5, THD1 I399A (UniProt P26039 1-405, I399A); experiment: as above
T5 construct: talin-1 (TLN1) head domain, residues 1-405, I399A; source: E. coli (DE3) Rosetta 2, purified (IMAC, SEC); not shown: His10-SUMO, N-terminal, cleaved
T5 sequence (P26039 1-405 I399A): as the sequence (P26039 1-405 K402E) above, with I399A, E402K counted along it

[8] = molecular target: T6, THD1 K404A (UniProt P26039 1-405, K404A); experiment: as above
T6 construct: talin-1 (TLN1) head domain, residues 1-405, K404A; source: E. coli (DE3) Rosetta 2, purified (IMAC, SEC); not shown: His10-SUMO, N-terminal, cleaved
T6 sequence (P26039 1-405 K404A): as the sequence (P26039 1-405 K402E) above, with E402K, K404A counted along it

B1: ATTO 488-labeled integrin β3 cytoplasmic tail (488–β3-CT) (peptide, UniProt O54890 741-787, looked up)
peptide: {ATTO 488}-KLLITIHDRKEFAKFEEERARAKWDTANNPLYKEATSTFTNITYRGT
notes: integrin β3 cytoplasmic tail (β3-CT); source: synthetic peptide (MPIB Core Facility)
Kd [1]: 54.3 µM and 67.7 µM and 70.3 µM | Kd [2]: 30.7 µM and 85.6 µM and 31.9 µM and 66 µM | Kd [3]: 37.8 µM and 35.5 µM and 32.5 µM | Kd [4]: 20.9 µM and 29.1 µM and 29.5 µM | Kd [5]: 24 µM and 20.7 µM and 18.8 µM | Kd [6]: 68.1 µM | Kd [7]: 55.2 µM | Kd [8]: 90.1 µM
